From patent US20100298415

Assays:
Assay in all cases: competition
Settings in all cases: PS three linkages at 5' and 3' ends of both strands; 5' C6 amino linker conjugated to Co(III) Schiff base; not inhibited at 1 uM; EMSA
Lef-1 = Lef-1 (UniProt Q9UJU2)
p105 (NF-kB) = target: T1, p105 (NF-kB) (UniProt P19838)
T1 sequence: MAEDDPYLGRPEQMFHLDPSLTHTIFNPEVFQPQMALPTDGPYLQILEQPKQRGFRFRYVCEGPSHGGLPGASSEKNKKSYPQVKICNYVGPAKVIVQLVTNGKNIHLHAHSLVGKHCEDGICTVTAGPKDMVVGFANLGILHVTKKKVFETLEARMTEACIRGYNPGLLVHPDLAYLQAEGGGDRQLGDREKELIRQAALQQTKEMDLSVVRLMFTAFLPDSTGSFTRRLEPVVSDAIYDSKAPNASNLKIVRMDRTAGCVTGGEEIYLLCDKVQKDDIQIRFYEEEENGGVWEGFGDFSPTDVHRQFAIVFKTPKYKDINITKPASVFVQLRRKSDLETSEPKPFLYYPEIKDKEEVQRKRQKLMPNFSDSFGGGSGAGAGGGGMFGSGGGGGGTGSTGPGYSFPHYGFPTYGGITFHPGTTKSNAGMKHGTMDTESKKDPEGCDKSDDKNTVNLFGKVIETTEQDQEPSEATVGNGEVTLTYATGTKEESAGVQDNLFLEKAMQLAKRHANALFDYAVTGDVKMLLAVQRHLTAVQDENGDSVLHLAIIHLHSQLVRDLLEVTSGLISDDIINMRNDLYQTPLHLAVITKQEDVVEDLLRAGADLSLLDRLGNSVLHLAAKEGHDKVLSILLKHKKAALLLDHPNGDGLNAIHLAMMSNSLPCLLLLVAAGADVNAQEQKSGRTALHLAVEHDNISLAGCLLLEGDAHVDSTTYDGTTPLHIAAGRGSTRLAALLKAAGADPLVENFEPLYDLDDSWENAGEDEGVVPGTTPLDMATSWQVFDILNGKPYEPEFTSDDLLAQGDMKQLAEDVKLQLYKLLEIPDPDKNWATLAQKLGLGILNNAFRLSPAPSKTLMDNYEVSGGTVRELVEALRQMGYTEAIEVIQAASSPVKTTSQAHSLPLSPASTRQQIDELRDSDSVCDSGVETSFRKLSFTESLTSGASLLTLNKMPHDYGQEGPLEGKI

MitF = target: T2, MitF (UniProt O75030)
T2 sequence: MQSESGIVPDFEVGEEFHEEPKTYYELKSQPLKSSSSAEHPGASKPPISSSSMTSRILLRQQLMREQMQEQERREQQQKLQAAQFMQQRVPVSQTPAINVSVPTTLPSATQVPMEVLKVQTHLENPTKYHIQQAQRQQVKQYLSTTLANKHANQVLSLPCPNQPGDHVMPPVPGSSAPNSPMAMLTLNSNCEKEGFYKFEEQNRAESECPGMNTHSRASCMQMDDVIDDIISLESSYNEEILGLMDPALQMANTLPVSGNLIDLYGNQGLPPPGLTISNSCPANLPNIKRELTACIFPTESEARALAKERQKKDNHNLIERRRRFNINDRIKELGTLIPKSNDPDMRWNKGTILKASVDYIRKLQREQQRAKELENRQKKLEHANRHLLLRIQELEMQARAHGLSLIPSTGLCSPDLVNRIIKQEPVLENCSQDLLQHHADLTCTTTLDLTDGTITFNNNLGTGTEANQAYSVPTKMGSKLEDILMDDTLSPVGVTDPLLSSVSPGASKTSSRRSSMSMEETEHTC

Measured: activity

Chain of Lef-1 (Q9UJU2 whole entry): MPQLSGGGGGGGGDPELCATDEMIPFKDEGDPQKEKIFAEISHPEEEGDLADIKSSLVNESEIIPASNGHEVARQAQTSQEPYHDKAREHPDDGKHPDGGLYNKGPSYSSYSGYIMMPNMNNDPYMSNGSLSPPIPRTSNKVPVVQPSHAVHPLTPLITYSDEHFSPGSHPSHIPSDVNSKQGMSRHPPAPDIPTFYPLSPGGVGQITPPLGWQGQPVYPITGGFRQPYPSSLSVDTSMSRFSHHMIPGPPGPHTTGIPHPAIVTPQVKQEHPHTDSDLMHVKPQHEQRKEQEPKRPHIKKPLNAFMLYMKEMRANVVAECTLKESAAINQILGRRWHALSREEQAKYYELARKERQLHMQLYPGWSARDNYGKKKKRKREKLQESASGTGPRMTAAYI

TACGACAGGTGTTGGGA (double strand) [Co(III)-Ebox]
> 1 µM: all assays above
